Measured values from article PMC5700373, “Repression of YdaS Toxin Is Mediated by Transcriptional Repressor RacR in the Cryptic rac Prophage of Escherichia coli K-12”.

Assays:
[1] = target: T1, RacR (Escherichia coli K-12) (UniProt P76062); experiment: EMSA; settings: EMSA: 10x buffer 100 mM Tris pH 8, 10 mM EDTA, 1 M NaCl, 1 mM DTT, 50% glycerol, 0.1 mg/ml BSA (presumably 1x final), room temperature 1 h, SYBR green stain. …
T1 sequence: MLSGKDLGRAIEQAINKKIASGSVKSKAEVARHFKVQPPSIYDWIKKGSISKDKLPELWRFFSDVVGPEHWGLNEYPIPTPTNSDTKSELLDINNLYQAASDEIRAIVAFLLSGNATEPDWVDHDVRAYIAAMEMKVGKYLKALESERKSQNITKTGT

RacR = target: T2, RacR (Escherichia coli K-12, UniProt P76062 1-158); experiment: EMSA; 23.5 nM DNA, RacR up to 67.5 nM; single complex; EMSA: 10x buffer 100 mM Tris pH 8, 10 mM EDTA, 1 M NaCl, 1 mM DTT, 50% glycerol, 0.1 mg/ml BSA (presumably 1x final), room temperature 1 h, SYBR green stain. TSA: 50 mM Tris pH 8.5, 500 mM NaCl, 5% glycerol, 20-95 C; settings: protein: recombinant; tags: C-terminal His (pET28a); chain copies: 2; blunt
T2 sequence: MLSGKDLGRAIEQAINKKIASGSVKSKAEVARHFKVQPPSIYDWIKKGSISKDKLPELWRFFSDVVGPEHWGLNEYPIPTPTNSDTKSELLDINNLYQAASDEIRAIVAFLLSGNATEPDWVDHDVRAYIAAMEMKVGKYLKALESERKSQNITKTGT

## TGCTTAATATTCTCCTATGCGCATTACATTAGGCAATCCCTACCCTTACTGCATTAGGCACAGCCTATTGACAATTGCGTTAGGCGTCGCCTAATATTTCTGTGTGTTTTTGGAGTTCATTCG (double strand) [123-bp racR-ydaS IGR]
[1]
  binding: binds

B1: 49-bp region upstream of ydaS (dsDNA)
DNA 1: CGAATGAACTCCAAAAACACACAGAAATATTAGGCGACGCCTAACGCAA
DNA 2: TTGCGTTAGGCGTCGCCTAATATTTCTGTGTGTTTTTGGAGTTCATTCG
RacR
  binding result: binds
